Test: yeast display, Sf9 membrane polyspecificity reagent, FACS + sequencing; frameworks hold sequencing errors
Procedure, shortened: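 Galactose induction of a Saccharomyces cerevisiae BJ5465 synthetic nanobody display library ran 36–48 hours. The cells were then stained for 1 hour at 4 °C with 10% biotinylated, detergent-solubilized Sf9 membrane reagent, pulled down on streptavidin microbeads and FACS-sorted into low and high (top ~1%) gates on expression and reagent-binding fluorescence. Labels for polyreactivity follow the gate of origin.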

| Sequence | polyreactivity (PSR sort gate) |
| --- | --- |
| QVQLVESGGGLVQAGGSLRLSCAASGRTFEVYTMGWYRQAPGKERELVARIRRGASTNYADSVKGRFTISRDNAKNTVYLQMNSLKPEDTAVYYCNARYTAVAVRWTWPYETQADDYWGQGTQVTVSS | low polyreactivity |
| QVQLVESGGGLVQAGGSLRLRCAASGRTFKRKAMGWYRQAPGKEREFVAVITGSGGSTYYADSVKGRFTISRDNAKNTVYLQMNSLKPEDTAVYYCAAALGLRSTSWGRRGGGGVYWGQGTQVTVSS | high polyreactivity |
| QVQLVESGGGLVQAGGSLRLSCAASGRTFPYYAMGWYRQAPGKEREFVAGISRTGGSTYYADSVKGRFTISRDNAKNTVYLQMNSLKPEDTAVYYCNAPYIMTQQGGRRYDYWGQGTQVTVSS | high polyreactivity |
| QVQLVESRGGLVQAGGSLRLSCAASGSIFLSYAMGWYRQAPGKERELVADISRSGGSTYYADSVKGRFTISRDNAKNTVYLQMNSLKPEDTAVYYCAVYIAVYEGDYWGQGSQVTVSS | low polyreactivity |
| QVQLVDSGGGLVQAGGSLRLSCAASGSIFQRYAMGWYRQAPGKERELVAGINWSGGRTYYADSVKGRFTISRDNAKNTVYLQMNSLKPEDTAVYYCAAARYTRYDYWGQGTQVTVSS | high polyreactivity |
| QVQLVESGGGLVQAGGSLRLSCAASGLIFQYYAMGWSRQAPGKERELVASISWSGSSTYYADSVKGRFTISRDNAKNTVYLQMISLKPEDTAVYYCAAGWGRGWYDYWGQGTQVTVSS | high polyreactivity |
| QVQLVESGGGLVQAGGSLRLSCAASGIIFWYYAMGWYRQAPGKERELVAAINSGGSTNYADSVKGRFTISRDNAKNTVYLQMNSLKQEDTAVYYCAARYRWPIPGTQYEYWGQGTQVTVSS | low polyreactivity |
| QVQLVESGGGLVQAGGSLRFSCAASGRIFDYYAMGGYRQAPGKERELVATINVSDGSTYYADSVKGRFTISRDNAKNTVYLQMNSLKPEDTAVYYCAAAGWVPFDSLDLNYWGQGTQVTVSS | low polyreactivity |
| QVQLVESGGGLVQAGGSLRLSCAASGSIFVGNAMGWYRQAPVKERELVADINVTGGTTYYADSVKGRFTISRDNAKNTVYLQMNSLKPEDTAVYYCAARQSIFYSWTGVEYYYWGQGTQVTVSS | low polyreactivity |
| QVQLVESGGGLVQAGGSLRLSCAASGYTFRYYAMGWYRQAHGKERELVAAITSSTSSTYYADSVKGRFTISRDNAKNTVYLQMNSLKPEDTAVYYCNRVWSTSMDYWGEGTQVTVSS | high polyreactivity |
| QVQLVESGGGLVQAGGSLRLSCAASGSIFTYNAMGWYRQAPGKERELVAVISWSGGSTYYADSVKGRFTISRDNAKNTVYLQMNSLKPEDTAVYYCNAYYYRPYGNKYGYWGQGTQVTVSS | high polyreactivity |
| QVQLVESGGGLVQAGGSLRLSCAPSGGTFPVYAMGWYRQAPGKERELVAAISYSGVTTYNADSVKGRFTISRDNAKNTVYLQMNSLKPEVTAVYYCNADWRPWYMFSYDYWGQGTQVTVSS | low polyreactivity |
| QVQLVESGGGLVQAGGSLRLSCAASGRTFYKYGMVLYRKAPGKERELVAAIRWSGGSTYYADSVKGRFTISRDNAKYTVYFQMNSLKPEDTAVYYCATRSGFGYGYWGQGTQVNVSS | high polyreactivity |
| QVQLVESGGGLVQAGGSLRLSCAASGRTLEHNAMGWYRQAPGKERELVAAISGSGGTTYYADSVKGRFTISRDNAKNTVYLQMNSLKPEDTAVYYCNAKLYRSFDYWGQGTQVTVSS | low polyreactivity |
| QVQLVESGGGLVQAGGSLRLSCAASGSTFYIYAMGWYRQAPGKERELVAAIDWNDGSTYYADSVKARFTISRDNAKNTVYLQMNSLKPEDTAVYYCAAAIYIYRGGTYDYWGQGTQVTVSS | high polyreactivity |
| QVQLVESGGGLVQAGGSLRLSCAASGFTIGKNAMGWYRQAPGKERELVAAISLSGGRTYADSVKGRFTISRDNAKNTVYLQTNSLKPEDTAVYYCAANRYPKFYWGQGTQVTVSS | high polyreactivity |

| Sequence | polyreactivity (PSR sort gate) |
| --- | --- |
| QVQLVESGGGLVQAGGSLRLSCAASGSTLGYYAMGWYRQAPGKERELVAAISGRGTSTYYADSVKGRFTISRDNAKTTVYLQMNSLKPEDSAVFYCAAQLFRELYWGQGTQVNVSS | high polyreactivity |
| QVQLVESGGGLVQAGGSLRLSCAASGSTFGYYAMGWYRQAPGQERELVAAITSGGSTKYADSVKGRFTISRDNAKNTVYLQLISLKPEDNAVYYCATSRYFGYGYWGQGTQVTVSS | low polyreactivity |
| QVQLVESGGGLVQAGGSLRLSCAASGSISQKYVMGWYRKAPGKERELVAAIRSTGNTYYADSVKGRFTISRDNAKNTVYLQMNSLKPEDTAVYYCAARLYVLRWYPYDYWGQGTQVTVSS | low polyreactivity |
| QVQLVESGGGLVQAGGSLRLSCAASGSTFFLYAMGWYRQAPGKERELVAVITWRGGRTYYADSVKGRFTISRDNAKNTVYLQMNSMKPEDTAVYYCAAEYYWPVKYYYWGQGTQVTVSS | high polyreactivity |
| KDQLVESGVGLVQAGCSLRLSCAASGRTLRRNAMGWYRQAPRKERELVAAISTGGGSTYYADSVKGRFTISRDNAKNTVYLQMNSLKPVDTAVYYCAAVYSQSTKRYELYYWGQGTQVTVSS | high polyreactivity |
| QVQLVESGGGLVQAGGSLRLSCAASGTFKYYAMGWYIQAPGEERELVAAISRGGRTNYADSVKGRFTISRDNAKNTVYLQMTSLKPEDTAVYYCAARKADTVFKFEYWGQGTQVTVSS | high polyreactivity |
| QVQLVESGGGLVQAGGSLRLSCAASGRTFSYYAMGWYREAPGNERELVAAITTGGRTYYADSVKGRFTISRDNAKNTVYLQMNSLKPEDTAVYYCAADYTVSYPYYEYYYWGQGTQVTVSS | high polyreactivity |
| QVQLVESGGVLLQAGGSLRLSCAASGSIFYPYAMGWYRQAPGKERELFAAITYIDADTYYADSVKGRFTISRDNAKNTVYLQMNSLKPEDTAVYYCAAEIPVYQGTGEDDYWGQGTQVTVSS | low polyreactivity |
| QVQLVESRGGLVQAGGSLRISCPDSGFTFTKNAMGWYRQAPGKERELVAAISRGRGRTYYADSVKGRFTISRDNAKNTVYFQMNSLIPEDTAVYYCNVDKVGPGYDYWGQGTQVTVSS | high polyreactivity |
| QVQLVESGGGLVQAGGSLRLSCAASRSTLSTYAMGWYRQAPGTERELVAAITWSDDSTYYADSVKGRFTISRDNAKNTVYLQMNSLKPEDTAVYYCAAEYISWFFGYDYWGQGTQVTVSS | high polyreactivity |
| QVQLVESGGGLVQAGGSLRLSCPASGSTFSYNMGWYRPAPGKERELVAAISGSGGSTYADSVKGRFTISRDNAKKTVYLQMNSLKPEDTAVYYCATVRYWVHEYGFWGLGTQVTVSS | high polyreactivity |
| QVQLVESGGGLVQAGGSLRLSCAASGITFSYYAMGWYRQAPGKERELVAAINSSGGSTYYADSVKGRFTISRDNAKNTVYLQMNSLKPEDTAVYYCNADYGYHNHLFWGYYGWSSDHWGQGTQVTVSS | low polyreactivity |
| QVQLVESGGGLVQAGGSLRLSCAASGRICEVYAMGWYRQAPGKERELVAAINSGGSTRYADSVKGRFTISRDNAKNTVYLQMNSLKPEDTAVYYCNARPGYYRYLRGYNYWGQGTQVTVSS | low polyreactivity |
| QGQLVESGEGLVQAGGSLRLRCAASGSIIRYYTMGGYRQAPGKERELVAAISWSGGSTYYADSVKGRFTISRDNANNTVYLQMNSLKPEETSVYYCNAVSFAYNPYSATYDYWGQGTQVTVSS | high polyreactivity |
| QVQLVESGGGLVQAGGSLRLSCAASGYTFGAYAMGWNRQAPGKERELVAAITVRAGRTYYADSVKGRFTISRDNAKNSVYLQMNSLKPEDTSVYYCARRNPLGGNEHDYWGHGTQVTVSS | low polyreactivity |
| QVQLVESGGGLVQAGGSLRLSCAASGSTFTSNAMGWYRQAPGKERELVASISGSGGRTDYADSVKGRFTISRDNAKNTVYLQMNSLKPEDTAVYYCNAESRNLYSTQFDYWGQGTQVTVSS | low polyreactivity |
